# Numbering of substitutions follows the chain as printed.
# T1: N-LC-biotinylated rat α-CGRP (rat, N-LC-biotinylated)
# T1 construct: Captured on a streptavidin sensor chip; also called α-rat
# T1 peptide: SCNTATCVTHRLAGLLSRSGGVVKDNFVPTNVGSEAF
# T2: N-LC-biotinylated human α-CGRP (human (the filing says that cynomolgus …, N-LC-biotinylated))
# T2 construct: Captured on a streptavidin sensor chip; also called α-human/cyno; α-human
# T2 peptide: T1 peptide with S1A, N3D, D25N, E35K
# T3: N-LC-biotinylated rat β-CGRP (rat, N-LC-biotinylated (in the assay with CGRP on the chip))
# T3 construct: Captured on a streptavidin sensor chip for G1; also called β-rat
# T3 peptide: T1 peptide with E35K
# T4: N-LC-biotinylated human β-CGRP (human (the filing says that cynomolgus …, N-LC-biotinylated))
# T4 construct: Captured on a streptavidin sensor chip; also called β-human/cyno; β-human
# T4 peptide: T1 peptide with S1A, V22M, D25S, E35K
# T5: 125I-human α-CGRP (human, 125I label (position not given))
# T5 peptide: T1 peptide with S1A, N3D, D25N, E35K
# B1: Fab fragment of antibody G1 (Fab, V domains shown)
# VH: EVQLVESGGGLVQPGGSLRLSCAASGFTFSNYWISWVRQAPGKGLEWVAEIRSESDASATHYAEAVKGRFTISRDNAKNSLYLQMNSLRAEDTAVYYCLAYFDYGLAIQNYWGQGTLVTVSS
# VL: EIVLTQSPATLSLSPGERATLSCKASKRVTTYVSWYQQKPGQAPRLLIYGASNRYLGIPARFSGSGSGTDFTLTISSLEPEDFAVYYCSQSYNYPYTFGQGTKLEIK
# notes: also called G1 Fab; G1 antibody
# B2: anti-CGRP G1 antibody (whole IgG) (antibody, V domains shown)
# VH: B1 VH
# VL: EIVLTQSPATLSLSPGERATLSCKASKRVTTYVSWYQQKPGQAPRLLIYGASNRYLGIPARFSGSGSGTDFTLTISSLEPEDFAVYYCSQSYNYPYTFGQGTKLEIKR
# notes: also called antibody G1; anti-CGRP antibody
# B3: Fab fragment of antibody G2 (Fab, V domains shown)
# VH: EVQLQQSGPELVKPGASVKMSCKASGYTFTSSVMHWVKQKPGQGLEWIGYINPYNDGTKYNEKFKGKATLTSDKSSSTAYMELSSLTSEDSAVYYCAKGGNDGYWGQGTTLTVSS
# VL: EIVLTQSPTTMAASPGEKITITCSASSSISSIYLHWYQQKPGFSPKVLIYRASNLASGVPARFSGSGSGTSYSLTIGTMEAEDVATYYCQQGSTIPFTFGSGTKLEIKR
# notes: also called G2 Fab; G2 antibody
# B4: antibody G2 (form in the reverse orientation assay not stated) (antibody, V domains shown)
# VH: B3 VH
# VL: EIVLTQSPTTMAASPGEKITITCSASSSISSIYLHWYQQKPGFSPKVLIYRASNLASGVPARFSGSGSGTSYSLTIGTMEAEDVATYYCQQGSTIPFTFGSGTKLEIK
# notes: Anti-rat CGRP mouse monoclonal antibody
# Key:
# [1] = molecular target: T1, N-LC-biotinylated rat α-CGRP; assay: SPR (Biacore 3000), Fab over N-biotin-CGRP captured on SA chip, 37 °C
# Description: (§1) Interaction analysis was conducted at 25° C. and at 37° C. on a Biacore 3000™ system equipped with streptavidin-coated (SA) sensor chips (Biacore AB, Uppsala, Sweden) using standard Biacore running buffers (HBS-P or HBS-EP). N-LC-biotinylated human and rat α- and β-CGRPs were captured on individual flow cells at low levels (typically 100 response units) to provide the reaction surfaces, while an unmodified flow cell served as a reference channel. Purified Fab fragments of antibodies G1 and G2 were generated. Typically, Fabs were prepared as a two-fold serial dilution using 0.5 μM as the top concentration and injected for 1-min at 100 μl/min allowing up to two hours for the dissociation time. Surfaces were regenerated with a mixture of 50% v/v ethanol+25 mM NaOH for G1 Fab and 2:1 v/v Pierce Gentle Elution Buffer/4M NaCl for G2 Fab. […] The binding responses were double-referenced and fit globally to a simple model using BiaEvaluation v. 4.0 software. Affinities were deduced from the quotient of the kinetic rate constants (KD=koff/kₒₙ).
# [2] = molecular target: T2, N-LC-biotinylated human α-CGRP; assay: as above
# Description: as §1
# [3] = molecular target: T3, N-LC-biotinylated rat β-CGRP; assay: as above
# Description: as §1
# [4] = molecular target: T4, N-LC-biotinylated human β-CGRP; assay: as above
# Description: as §1
# [5] = molecular target: T2, N-LC-biotinylated human α-CGRP; assay: SPR (Biacore 3000), side-by-side on the same chip, 20-min dissociation time, 37 °C; 37 C; side-by-side on the same chip; 20-min dissociation; rounded figure for three CGRPs
# Description: as §1
# (§2) The dissociation of G1 Fab from α-human, β-human, and […] occurs very slowly. As such, the offrate (koff) cannot be measured accurately unless the dissociation phase is monitored for a very long time. As a general rule-of-thumb, the binding response decays at least 5% over the allowed dissociation time for the report of an accurate offrate. However, monitoring long dissociation times on the Biacore is hindered by baseline drift, which is particularly challenging when working at the low surface capacities required for kinetic analyses. […] As a result, the offrates for β-CGRPs cannot be resolved as accurately as those for α-CGRPs.
# [6] = molecular target: T3, N-LC-biotinylated rat β-CGRP; assay: as above
# Description: as §1, §2
# [7] = molecular target: T4, N-LC-biotinylated human β-CGRP; assay: as above
# Description: as §1, §2
# [8] = molecular target: T2, N-LC-biotinylated human α-CGRP; assay: SPR (Biacore 3000), side-by-side on the same chip at 37 °C, 20-min dissociation time; 37 C; side-by-side on the same chip; 20-min dissociation
# Description: as §1
# The results for antibody G1 are expressed in Table 1 below. […] Human and cynomolgus monkey have identical sequences; therefore, the human data also apply to cynomolgus.
# [9] = molecular target: T3, N-LC-biotinylated rat β-CGRP; assay: SPR (Biacore 3000), Fab over N-biotin-CGRP captured on SA chip, 37 °C; 37 C; upper bound, 20-min dissociation
# Description: as §1
# The dissociation of G1 Fab from α-human, β-human, and […] occurs very slowly. As such, the offrate (koff) cannot be measured accurately unless the dissociation phase is monitored for a very long time. As a general rule-of-thumb, the binding response decays at least 5% over the allowed dissociation time for the report of an accurate offrate. […]
# [10] = molecular target: T1, N-LC-biotinylated rat α-CGRP; assay: SPR (Biacore 3000), Fab over N-biotin-CGRP captured on SA chip, 25 °C
# Description: as §1
# [11] = molecular target: T2, N-LC-biotinylated human α-CGRP; assay: as above
# Description: as §1
# 125I-human α-CGRP = molecular target: T5, 125I-human α-CGRP; assay: competition radioligand binding: 125I-human α-CGRP on SK-N-MC cell membranes (CGRP1-receptor), 25 °C; IC50 given as binding sites (IgG value multiplied by 2); 25 C; radioligand competition on SK-N-MC membranes; whole IgG, IC50 said to be converted to binding sites
# Description: A binding assay was performed to measure the IC₅₀ of anti-CGRP G1 antibody in blocking human α-CGRP from binding to the CGRP1-receptor. Membranes (25 μg) from SK-N-MC cells were incubated for 90 minutes at 25° C. in incubation buffer (50 mM Tris-HCl, pH 7.4, 5 mM MgCl₂, 0.1% BSA) containing […] ¹²⁵I-human α-CGRP and varying concentrations of anti-CGRP antibody (0.015 nM-33 nM) in a total volume of 1 ml. Incubation was terminated by filtration through a glass microfiber filter (GF/B, 1 μm) which had been blocked with 0.5% polyethylenimine. The protein-bound radioactivity was determined in a gamma counter.
# [12] = molecular target: T1, N-LC-biotinylated rat α-CGRP; assay: SPR (Biacore 3000), Fab over N-biotin CGRP captured on SA chip, 37 °C
# Description: as §1
# [13] = molecular target: T2, N-LC-biotinylated human α-CGRP; assay: as above
# Description: as §1
# [14] = molecular target: T1, N-LC-biotinylated rat α-CGRP; assay: SPR (Biacore 3000), Fab over N-biotin CGRP captured on SA chip, 25 °C
# Description: as §1
# [15] = molecular target: T2, N-LC-biotinylated human α-CGRP; assay: as above
# Description: as §1
# [16] = molecular target: T4, N-LC-biotinylated human β-CGRP; assay: as above
# Description: as §1
# [17] = molecular target: T3, N-LC-biotinylated rat β-CGRP; assay: SPR, reverse orientation assay format (data not shown)
binder,measurement,setting,value
B1,T1/2,[1],28.8 min
same,koff,[1],0.000399 s⁻¹
same,kon,[1],155000 M⁻¹ s⁻¹
same,T1/2,[2],318 min
same,koff,[2],3.63e-05 s⁻¹
same,kon,[2],587000 M⁻¹ s⁻¹
same,Kd,[3],< 152 pM
same,T1/2,[3],147 min
same,koff,[3],< 7.85e-05 s⁻¹
same,kon,[3],516000 M⁻¹ s⁻¹
same,Kd,[4],< 155 pM
same,T1/2,[4],166 min
same,koff,[4],< 6.98e-05 s⁻¹
same,kon,[4],451000 M⁻¹ s⁻¹
same,Kd,[5],~150 pM
same,Kd,[6],~150 pM
same,Kd,[7],~150 pM
same,Kd,[8],163 pM
same,Kd,[9],< 150 pM
same,T1/2,[10],187 min
same,koff,[10],6.18e-05 s⁻¹
same,kon,[10],50800 M⁻¹ s⁻¹
same,T1/2,[11],1480 min
same,koff,[11],7.8e-06 s⁻¹
same,kon,[11],186000 M⁻¹ s⁻¹
B2,IC50,125I-human α-CGRP,1800 pM
B3,Kd,[12],3400 pM
same,T1/2,[12],6.8 min
same,koff,[12],0.0017 s⁻¹
same,kon,[12],500000 M⁻¹ s⁻¹
same,Kd,[13],41900 pM
same,T1/2,[13],2.96 min
same,koff,[13],0.0039 s⁻¹
same,kon,[13],93000 M⁻¹ s⁻¹
same,Kd,[14],900 pM
same,T1/2,[14],54 min
same,koff,[14],0.000214 s⁻¹
same,kon,[14],231000 M⁻¹ s⁻¹
same,Kd,[15],19100 pM
same,T1/2,[15],10.1 min
same,koff,[15],0.00115 s⁻¹
same,kon,[15],60300 M⁻¹ s⁻¹
same,Kd,[16],19900 pM
same,T1/2,[16],7.13 min
same,koff,[16],0.00162 s⁻¹
same,kon,[16],81400 M⁻¹ s⁻¹
B4,binding result,[17],binds

# Source: US20120225075A1 (LABRYS BIOLOGICS, published 2012)
